Measured values: FireProtDB (doi:10.1016/j.jmb.2009.05.011)
Several values for one entry are separate records, joined by “and”; a condition that tells them apart may be missing. Identical values can stand only once.

B1: Dihydrolipoyllysine-residue succinyltransferase component of 2-oxoglutarate dehydrogenase complex, P0AFG6 (parent)
chain: MSSVDILVPDLPESVADATVATWHKKPGDAVVRDEVLVEIETDKVVLEVPASADGILDAVLEDEGTTVTSRQILGRLREGNSAGKETSAKSEEKASTPAQRQQASLEEQNNDALSPAIRRLLAEHNLDASAIKGTGVGGRLTREDVEKHLAKAPAKESAPAAAAPAAQPALAARSEKRVPMTRLRKRVAERLLEAKNSTAMLTTFNEVNMKPIMDLRKQYGEAFEKRHGIRLGFMSFYVKAVVEALKRYPEVNASIDGDDVVYHNYFDVSMAVSTPRGLVTPVLRDVDTLGMADIEKKIKELAVKGRDGKLTVEDLTGGNFTITNGGVFGSLMSTPIINPPQSAILGMHAIKDRPMAVNGQVEILPMMYLALSYDHRLIDGRESVGFLVTIKELLEDPTRLLLDV

Variants of: B1
Settings: Escherichia coli (strain K12), pH 7, structure 1W4H, whole UniProt chain shown
[1] = 10 °C, GdnHCl, CD, 3-[morpholino]propanesulfonic acid 50 mM, NaCl 200 mM
[2] = 10 °C, GdnHCl, Fluorescence, 3-[morpholino]propanesulfonic acid 50 mM, NaCl 200 mM
[3] = Thermal, CD, Potassium phosphate 50 mM, KCl 200 mM

| Variant | ddG of mutation (higher = less stable) [1] | denaturant m value [1] | denaturant midpoint (higher = more stable) [1] | unfolding free energy [1] | denaturant m value [2] | unfolding free energy [2] | Tm [3] | ddG of mutation (higher = less stable) [3] | unfolding enthalpy (van 't Hoff) [3] |
| --- | --- | --- | --- | --- | --- | --- | --- | --- | --- |
| MSSVDILVPDLPESVADATVATWHKKPGDAVVRDEVLVEIETDKVVLEVPASADGILDAVLEDEGTTVTSRQILGRLREGNSAGKETSAKSEEKASTPAQRQQASLEEQNNDALSPAARRLLAEHNLDASAIKGTGVGGRLTREDVEKHLAKAPAKESAPAAAAPAAQPALAARSEKRVPMTRLRKRVAERLLEAKNSTAMLTTFNEVNMKPIMDLRKQYGEAFEKRHGIRLGFMSFYVKAVVEALKRYPEVNASIDGDDVVYHNYFDVSMAVSTPRGLVTPVLRDVDTLGMADIEKKIKELAVKGRDGKLTVEDLTGGNFTITNGGVFGSLMSTPIINPPQSAILGMHAIKDRPMAVNGQVEILPMMYLALSYDHRLIDGRESVGFLVTIKELLEDPTRLLLDV [I118A] | 1.24 kcal/mol | 0.65 kcal/mol/M | 2.09 M | 1.36 kcal/mol | 0.46 kcal/mol/M and 0.2 kcal/mol/M | 1.18 kcal/mol | – | – | – |
| MSSVDILVPDLPESVADATVATWHKKPGDAVVRDEVLVEIETDKVVLEVPASADGILDAVLEDEGTTVTSRQILGRLREGNSAGKETSAKSEEKASTPAQRQQASLEEQNNDALGPAIRRLLAEHNLDASAIKGTGVGGRLTREDVEKHLAKAPAKESAPAAAAPAAQPALAARSEKRVPMTRLRKRVAERLLEAKNSTAMLTTFNEVNMKPIMDLRKQYGEAFEKRHGIRLGFMSFYVKAVVEALKRYPEVNASIDGDDVVYHNYFDVSMAVSTPRGLVTPVLRDVDTLGMADIEKKIKELAVKGRDGKLTVEDLTGGNFTITNGGVFGSLMSTPIINPPQSAILGMHAIKDRPMAVNGQVEILPMMYLALSYDHRLIDGRESVGFLVTIKELLEDPTRLLLDV [S115G] | 0.57 kcal/mol | 0.7 kcal/mol/M | 3.05 M | 2.14 kcal/mol | 0.21 kcal/mol/M | 2.31 kcal/mol | 53.6 °C | 0.47 kcal/mol | 21 kcal/mol |
| MSSVDILVPDLPESVADATVATWHKKPGDAVVRDEVLVEIETDKVVLEVPASADGILDAVLEDEGTTVTSRQILGRLREGNSAGKETSAKSEEKASTPAQRQQASLEEQNNDALSPAIRRALAEHNLDASAIKGTGVGGRLTREDVEKHLAKAPAKESAPAAAAPAAQPALAARSEKRVPMTRLRKRVAERLLEAKNSTAMLTTFNEVNMKPIMDLRKQYGEAFEKRHGIRLGFMSFYVKAVVEALKRYPEVNASIDGDDVVYHNYFDVSMAVSTPRGLVTPVLRDVDTLGMADIEKKIKELAVKGRDGKLTVEDLTGGNFTITNGGVFGSLMSTPIINPPQSAILGMHAIKDRPMAVNGQVEILPMMYLALSYDHRLIDGRESVGFLVTIKELLEDPTRLLLDV [L121A] | 1.6 kcal/mol | 0.64 kcal/mol/M | 1.63 M | 1.04 kcal/mol | 0.46 kcal/mol/M and 0.16 kcal/mol/M | 0.9 kcal/mol | 32.2 °C | 1.67 kcal/mol | 16 kcal/mol |
| MSSVDILVPDLPESVADATVATWHKKPGDAVVRDEVLVEIETDKVVLEVPASADGILDAVLEDEGTTVTSRQILGRLREGNSAGKETSAKSEEKASTPAQRQQASLEEQNNDAASPAIRRLLAEHNLDASAIKGTGVGGRLTREDVEKHLAKAPAKESAPAAAAPAAQPALAARSEKRVPMTRLRKRVAERLLEAKNSTAMLTTFNEVNMKPIMDLRKQYGEAFEKRHGIRLGFMSFYVKAVVEALKRYPEVNASIDGDDVVYHNYFDVSMAVSTPRGLVTPVLRDVDTLGMADIEKKIKELAVKGRDGKLTVEDLTGGNFTITNGGVFGSLMSTPIINPPQSAILGMHAIKDRPMAVNGQVEILPMMYLALSYDHRLIDGRESVGFLVTIKELLEDPTRLLLDV [L114A] | 0.9 kcal/mol | 0.71 kcal/mol/M | 2.6 M | 1.85 kcal/mol | 0.5 kcal/mol/M and 0.18 kcal/mol/M | 1.7 kcal/mol | 41.9 °C | 0.94 kcal/mol | 20 kcal/mol |
| MSSVDILVPDLPESVADATVATWHKKPGDAVVRDEVLVEIETDKVVLEVPASADGILDAVLEDEGTTVTSRQILGRLREGNSAGKETSAKSEEKASTPAQRQQASLEEQNNDALSPAIRRLLGEHNLDASAIKGTGVGGRLTREDVEKHLAKAPAKESAPAAAAPAAQPALAARSEKRVPMTRLRKRVAERLLEAKNSTAMLTTFNEVNMKPIMDLRKQYGEAFEKRHGIRLGFMSFYVKAVVEALKRYPEVNASIDGDDVVYHNYFDVSMAVSTPRGLVTPVLRDVDTLGMADIEKKIKELAVKGRDGKLTVEDLTGGNFTITNGGVFGSLMSTPIINPPQSAILGMHAIKDRPMAVNGQVEILPMMYLALSYDHRLIDGRESVGFLVTIKELLEDPTRLLLDV [A123G] | 0.93 kcal/mol | 0.72 kcal/mol/M | 2.55 M | 1.84 kcal/mol | 0.42 kcal/mol/M and 0.23 kcal/mol/M | 1.81 kcal/mol | 40.8 °C | 1.02 kcal/mol | 20 kcal/mol |
